Results from a protein production outcome set (Wang et al. 2014).

Assay: label from the status in PepcDB records

MLLRSPSYAGKAAQAQEGDAYGVYQLATLLIGMDAEDETSCLLAADALYRLGRLDDAHKSLLVALSQRPQAAPVLVRLALLQLRRGFCYDANQLVKKVAQSGDTACLQHMLDIFHHEDLQLLQDHCHTRALSILRARPGGSDSEAHTREAIAYLSLAIFAAGSGGSESLLVRARCYGLLGQKKTAMFDFNAILREEPGNVKALCGRALVHLALDQLQEAVDDMVSALKLDPGTVTPEILSLKTEVQLPLTQGLYTRCRVLLNQCLHTGVPLREEDTQGLLATGKALIRINATQPSWRLLLTDILTGLGKYQEAGTHLQEALHLTPSSEAAQARQGLLQLKKGDVSAAAHGLQCLAERDTQDLGFLLRLLDSPERQSLVQTAAKEASNILDLGNPGQALSYCSLAILAGGNNPYHLRLRVACLTQLREYDRALRDLDRVLQHPAEDSDLPRRSEDFCTRGRLLLSLGDKDGAAGAFTQALALAPAQAQNSLLEQPGQAMTASVFLIHGQRCLEEQHFEEAWTAVQNGLLVDPSHSGLKKLKLRTRKVATSGCRLH
protein production: failed

MTFRNCVAVDLGASSGRVMLARYERECRSLTLREIHRFNNGLHSQNGYVTWDVDSLESAIRLGLNKVCEEGIRIDSIGIDTWGVDFVLLDQQGQRVGLPVAYRDSRTNGLMAQAQQQLGKRDIYQRSGIQFLPFNTLYQLRALTEQQPELIPHIAHALLMPDYFSYRLTGKMNWEYTNATTTQLVNINSDDWDESLLAWSGANKAWFGRPTHPGNVIGHWICPQGNEIPVVAVASHDTASAVIASPLNGSRAAYLSSGTWSLMGFESQTPFTNDTALAANITNEGGAEGRYRVLKNIMGLWLLQRVLQERQINDLPALISATQALPACRFIINPNDBRFINPETMCSEIQAACRETAQPIPESDAELARCIFDSLALLYADVLHELAQLRGEDFSQLHIVGGGCQNTLLNQLCADACGIRVIAGPVEASTLGNIGIQLMTLDELNNVDDFRQVVSTTANLTTFTPNPDSEIAHYVARIHSTRQTKELCA
protein production: not failed

MKDVTIYHNPRCSKSRETLALVEQQGITPQVVLYLETPPSVDKLKELLQQLGFSDARQLMRTKEDLYKTLNLDDRGLTQDQLLQAMADNPKLIERPIVVTQGKARIGRPPEQVLEILK
protein production: not failed

MRKLLSVIVSLMTAMAFAQQPVELPLWPDGAPNSNGLTGGEKEVSPHRLSNVTAPTITVYRAPQPNGMAVIMCPGGGYSRLAMDHEGHDMASWFCGQGITYVVLKYRMPNGHCEVPLSDAERAIRIVREHAGEWNIHPRKIGIMGASAGGHLASTLATHYSAASRPDFQILLYPVVTMTQSTHGGSRKELLGGNPTAEQEVLFSNELQVTSDTPQAFIVLSSDDGAVPPSNGVNYYLALQKNNVPASLHVYPTGGHGWGFRDNFKYKQQWTQELEKWLREGVVFPKETAPMLRIGKTYLGTKYVANTLDQGTEEKLVILPQTVDCLTFVEYTLAQAMGSSFADNLQKIRYRDGVIDGYTSRLHYTSDWIENGVRQGFLEDVTAQNSTQTTKLSLSYMSTHPQKYRQLADSPENVKRMAEHEKALSGKKVHWLPKGKLPDAGLPWIMDGDIIAITTNLPGLDVAHVGMAEYINGKLHLLHASSTLGKVVVSEEPLSQMLRNNKSWSGIRVVRMSHP
protein production: failed

MEMKTKKAVLMSSLALSIIAFLLALILMQPNSAGYPEVPAVPTYVLFGLSAASFAVFIYEYFTATRT
protein production: failed

GHMARTVNLKGNPVTLVGPELKVGDRAPEAVVVTKDLQEKIVGGAKDVVQVIITVPSLDTPVCETETKKFNEIMAGMEGVDVTVVSMDLPFAQKRFCESFNIQNVTVASDFRYRDMEKYGVLIGEGALKGILARAVFIIDKEGKVAYVQLVPEITEEPNYDEVVNKVKELI
protein production: not failed

MAAYGLYTHIASNKLRSMLLLAGLFALVYVLVYAGALVAEVVINGNETVAFYLSHAFLDLKVAAPVATVVTAVWVVIAYFFHQSMIDAVTGGHDVTRKEEPRLYNLLENLCISRGITMPKLKIMESPALNAFATGLNPRQYSITVTTGLLNALNDKEIEAVLGHELTHIKNGDVQLMVVAVIIAGVVGFFGELFFRLFTNLSWNSGGSWSSGSSSSRSSSSSSDSKNSGGGAVIVIIIAVVLIVVAWLMSQVVKLALSRSREYLADAGSVELTKDPDAMISALRKIENRGELPGATSAVMELCVDNPREGFADLFATHPSVQSRVDALVKFAGGHDPGPLPDPTDETEQPEAQGAPQDAPPPLSQRPWGDAAGPANPPPVPAPSPSGTTAGNPIGNPMGPWGRH
protein production: failed

MNDQELRAYLSQAKTIAVLGAHKDPSRPAHYVPRYLREQGYRVLPVNPRFQGEELFGEEAVASLLDLKEPVDILDVFRPPSALMDHLPEVLALRPGLVWLQSGIRHPEFEKALKEAGIPVVADRCLMVEHKRLFRGPLPL
protein production: not failed
